We go through 2 molecules from publication PMC10690100 (Molecular Cancer Therapeutics, 2023).

Experiment [1] has as its target recombinant human integrin alpha-v/beta-8 (Homo sapiens, UniProt P06756;P26012). Description: ELISA. Background: ELISA stands for enzyme-linked immunosorbent assay.
Experiment [2] has as its target recombinant human integrin alpha-v/beta-5 (Homo sapiens, UniProt P06756;P18084). In words: ELISA.
The target of experiment [3] is recombinant human integrin alpha-v/beta-6 (Homo sapiens, UniProt P06756;P18564). Description: ELISA.
For experiment [4], the target named is recombinant human integrin alpha-v/beta-3 (Homo sapiens, UniProt P06756;P05106). In words: ELISA.
Experiment [5] addresses recombinant human integrin alpha-v/beta-1 (Homo sapiens, UniProt P06756;P05556). Description: ELISA.
Experiment [6] has as its target human integrin beta-6 on 293F:hu beta-6 transfected cells (Homo sapiens, UniProt P06756;P18564). Description: flow cytometry on cells. Background: Flow cytometry measures light scatter and fluorescence of single cells or particles in a stream.

The EC50 is the concentration giving half of the maximal effect.

Chain of recombinant human integrin alpha-v/beta-1 (P06756 31-1048, chain 1 of 2): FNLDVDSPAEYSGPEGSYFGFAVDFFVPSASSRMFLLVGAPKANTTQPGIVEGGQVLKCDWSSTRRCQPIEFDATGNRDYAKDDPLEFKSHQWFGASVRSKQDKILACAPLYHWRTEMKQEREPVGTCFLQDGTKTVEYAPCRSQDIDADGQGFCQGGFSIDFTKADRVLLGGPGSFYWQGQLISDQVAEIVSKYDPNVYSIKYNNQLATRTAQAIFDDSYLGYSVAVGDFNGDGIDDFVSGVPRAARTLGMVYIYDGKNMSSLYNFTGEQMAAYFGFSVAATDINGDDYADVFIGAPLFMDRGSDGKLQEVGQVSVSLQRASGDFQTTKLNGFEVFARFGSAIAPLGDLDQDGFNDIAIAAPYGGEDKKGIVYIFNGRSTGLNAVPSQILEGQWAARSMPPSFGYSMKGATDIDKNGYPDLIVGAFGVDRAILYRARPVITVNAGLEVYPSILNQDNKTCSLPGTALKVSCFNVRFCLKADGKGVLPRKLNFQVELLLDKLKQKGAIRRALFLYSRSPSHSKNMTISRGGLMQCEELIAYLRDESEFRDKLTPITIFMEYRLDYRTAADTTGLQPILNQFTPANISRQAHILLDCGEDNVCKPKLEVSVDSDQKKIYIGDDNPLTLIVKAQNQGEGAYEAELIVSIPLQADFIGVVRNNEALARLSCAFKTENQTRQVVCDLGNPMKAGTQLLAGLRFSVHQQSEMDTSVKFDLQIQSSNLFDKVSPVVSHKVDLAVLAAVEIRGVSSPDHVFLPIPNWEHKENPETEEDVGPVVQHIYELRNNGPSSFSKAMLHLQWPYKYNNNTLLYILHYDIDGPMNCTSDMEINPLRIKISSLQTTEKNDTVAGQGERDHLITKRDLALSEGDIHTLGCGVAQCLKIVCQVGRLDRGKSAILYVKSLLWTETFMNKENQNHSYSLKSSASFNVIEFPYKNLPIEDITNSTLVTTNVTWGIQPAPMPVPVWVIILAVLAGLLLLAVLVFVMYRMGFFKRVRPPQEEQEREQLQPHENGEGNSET
Chain of recombinant human integrin alpha-v/beta-1 (P05556 21-728, chain 2 of 2): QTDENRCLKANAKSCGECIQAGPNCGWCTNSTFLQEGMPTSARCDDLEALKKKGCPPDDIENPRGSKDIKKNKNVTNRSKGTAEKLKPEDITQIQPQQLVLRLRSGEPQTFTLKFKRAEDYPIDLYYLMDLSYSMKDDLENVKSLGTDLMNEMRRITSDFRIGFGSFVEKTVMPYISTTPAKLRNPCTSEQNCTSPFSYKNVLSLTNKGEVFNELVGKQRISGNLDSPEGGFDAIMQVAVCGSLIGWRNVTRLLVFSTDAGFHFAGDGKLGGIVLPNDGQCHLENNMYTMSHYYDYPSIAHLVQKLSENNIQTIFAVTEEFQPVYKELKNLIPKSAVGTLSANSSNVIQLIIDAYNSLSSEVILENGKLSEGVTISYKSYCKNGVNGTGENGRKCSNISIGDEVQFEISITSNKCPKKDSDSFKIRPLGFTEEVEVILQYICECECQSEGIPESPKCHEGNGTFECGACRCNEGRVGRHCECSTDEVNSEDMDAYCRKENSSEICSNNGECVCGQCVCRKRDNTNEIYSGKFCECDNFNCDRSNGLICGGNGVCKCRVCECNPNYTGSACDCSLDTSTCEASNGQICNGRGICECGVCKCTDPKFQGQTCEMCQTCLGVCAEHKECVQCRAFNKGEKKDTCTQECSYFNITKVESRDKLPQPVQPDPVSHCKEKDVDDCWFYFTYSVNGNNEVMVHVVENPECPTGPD
Chain of recombinant human integrin alpha-v/beta-8 (P06756 31-1048, chain 1 of 2): as the sequence (P06756 31-1048, chain 1 of 2) above
Chain of recombinant human integrin alpha-v/beta-8 (P26012 43-684, chain 2 of 2): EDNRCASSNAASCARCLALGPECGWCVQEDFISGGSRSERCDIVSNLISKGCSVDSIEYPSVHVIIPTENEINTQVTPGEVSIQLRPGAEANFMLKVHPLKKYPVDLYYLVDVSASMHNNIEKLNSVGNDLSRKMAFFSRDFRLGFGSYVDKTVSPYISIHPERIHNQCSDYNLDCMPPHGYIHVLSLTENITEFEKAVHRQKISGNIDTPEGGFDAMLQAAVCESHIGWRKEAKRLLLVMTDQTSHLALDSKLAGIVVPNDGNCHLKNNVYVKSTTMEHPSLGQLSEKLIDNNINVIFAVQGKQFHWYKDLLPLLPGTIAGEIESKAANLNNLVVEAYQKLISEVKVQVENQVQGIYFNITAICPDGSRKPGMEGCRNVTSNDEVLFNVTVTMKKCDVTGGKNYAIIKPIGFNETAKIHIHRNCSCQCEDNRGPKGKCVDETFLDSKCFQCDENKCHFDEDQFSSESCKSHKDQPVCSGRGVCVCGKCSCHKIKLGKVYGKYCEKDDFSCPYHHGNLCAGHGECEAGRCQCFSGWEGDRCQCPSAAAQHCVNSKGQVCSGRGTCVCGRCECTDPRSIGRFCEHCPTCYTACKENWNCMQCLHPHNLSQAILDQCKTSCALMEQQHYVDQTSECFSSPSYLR
Chain of recombinant human integrin alpha-v/beta-6 (P06756 31-1048, chain 1 of 2): as the sequence (P06756 31-1048, chain 1 of 2) above
Chain of recombinant human integrin alpha-v/beta-6 (P18564 22-709, chain 2 of 2): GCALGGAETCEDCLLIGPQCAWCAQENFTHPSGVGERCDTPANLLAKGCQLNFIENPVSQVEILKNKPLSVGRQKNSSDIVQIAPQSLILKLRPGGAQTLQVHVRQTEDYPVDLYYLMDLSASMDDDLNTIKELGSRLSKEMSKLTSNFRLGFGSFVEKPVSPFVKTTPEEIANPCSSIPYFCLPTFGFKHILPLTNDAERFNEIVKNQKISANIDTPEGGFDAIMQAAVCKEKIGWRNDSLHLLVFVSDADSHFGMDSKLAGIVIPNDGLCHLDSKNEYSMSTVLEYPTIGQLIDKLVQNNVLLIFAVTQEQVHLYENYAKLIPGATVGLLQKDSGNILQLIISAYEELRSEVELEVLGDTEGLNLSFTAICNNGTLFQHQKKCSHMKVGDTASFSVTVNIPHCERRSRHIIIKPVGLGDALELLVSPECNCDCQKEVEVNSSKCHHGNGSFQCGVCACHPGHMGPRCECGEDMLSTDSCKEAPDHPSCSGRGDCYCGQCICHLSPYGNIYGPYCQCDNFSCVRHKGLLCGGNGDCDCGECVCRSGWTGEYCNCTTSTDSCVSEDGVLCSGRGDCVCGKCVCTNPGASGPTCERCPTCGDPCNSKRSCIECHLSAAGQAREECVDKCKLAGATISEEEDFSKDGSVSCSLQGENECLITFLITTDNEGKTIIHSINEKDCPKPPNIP
Chain of recombinant human integrin alpha-v/beta-5 (P06756 31-1048, chain 1 of 2): as the sequence (P06756 31-1048, chain 1 of 2) above
Chain of recombinant human integrin alpha-v/beta-5 (P18084 24-719, chain 2 of 2): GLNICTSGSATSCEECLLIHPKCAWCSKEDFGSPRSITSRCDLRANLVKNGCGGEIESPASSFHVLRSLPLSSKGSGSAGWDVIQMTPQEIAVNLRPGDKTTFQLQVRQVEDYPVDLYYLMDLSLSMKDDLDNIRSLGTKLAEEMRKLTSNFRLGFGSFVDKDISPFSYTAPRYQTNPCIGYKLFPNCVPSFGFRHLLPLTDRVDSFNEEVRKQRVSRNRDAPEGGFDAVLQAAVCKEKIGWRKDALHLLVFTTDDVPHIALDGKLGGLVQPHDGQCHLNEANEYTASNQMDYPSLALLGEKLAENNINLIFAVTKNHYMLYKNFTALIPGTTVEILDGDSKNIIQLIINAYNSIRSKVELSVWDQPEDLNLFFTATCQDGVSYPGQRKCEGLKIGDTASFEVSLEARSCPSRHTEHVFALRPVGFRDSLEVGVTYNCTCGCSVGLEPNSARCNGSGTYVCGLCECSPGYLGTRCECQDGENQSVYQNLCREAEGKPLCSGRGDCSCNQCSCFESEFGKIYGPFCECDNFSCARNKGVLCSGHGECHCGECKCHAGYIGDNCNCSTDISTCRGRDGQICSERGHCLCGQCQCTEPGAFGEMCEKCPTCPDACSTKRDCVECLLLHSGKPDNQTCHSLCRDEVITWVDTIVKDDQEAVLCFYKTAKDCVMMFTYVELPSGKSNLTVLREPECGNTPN
Chain of recombinant human integrin alpha-v/beta-3 (P06756 31-1048, chain 1 of 2): as the sequence (P06756 31-1048, chain 1 of 2) above
Chain of recombinant human integrin alpha-v/beta-3 (P05106 27-718, chain 2 of 2): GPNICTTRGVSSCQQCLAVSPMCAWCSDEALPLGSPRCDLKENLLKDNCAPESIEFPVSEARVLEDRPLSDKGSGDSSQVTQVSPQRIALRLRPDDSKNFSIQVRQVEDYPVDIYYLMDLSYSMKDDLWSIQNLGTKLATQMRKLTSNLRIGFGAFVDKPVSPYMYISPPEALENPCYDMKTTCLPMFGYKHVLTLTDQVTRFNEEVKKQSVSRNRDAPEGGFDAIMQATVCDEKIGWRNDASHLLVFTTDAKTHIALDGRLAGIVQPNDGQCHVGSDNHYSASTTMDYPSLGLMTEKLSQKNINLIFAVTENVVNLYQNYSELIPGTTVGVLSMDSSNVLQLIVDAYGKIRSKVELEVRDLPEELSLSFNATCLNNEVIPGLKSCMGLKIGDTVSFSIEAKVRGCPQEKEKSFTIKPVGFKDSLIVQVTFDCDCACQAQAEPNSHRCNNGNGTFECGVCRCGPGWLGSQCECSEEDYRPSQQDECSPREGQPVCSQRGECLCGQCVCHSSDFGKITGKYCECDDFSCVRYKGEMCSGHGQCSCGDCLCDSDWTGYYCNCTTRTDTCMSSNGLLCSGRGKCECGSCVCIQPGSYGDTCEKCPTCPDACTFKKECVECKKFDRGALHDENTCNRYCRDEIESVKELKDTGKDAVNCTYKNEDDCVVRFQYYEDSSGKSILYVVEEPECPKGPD

B1: SGN-B6A (h2A2 conjugated to the vedotin drug-linker) (antibody, V domains shown)
VH: QFQLVQSGAEVKKPGASVKVSCKASGYSFTDYNVNWVRQAPGQGLEWIGVINPKYGTTRYNQKFKGRATLTVDKSTSTAYMELSSLRSEDTAVYYCTRGLNAWDYWGQGTLVTVSS
VL: DIQMTQSPSSLSASVGDRVTITCGASENIYGALNWYQQKPGKAPKLLIYGATNLEDGVPSRFSGSGSGRDYTFTISSLQPEDIATYYCQNVLTTPYTFGQGTKLEIK
For B1, the binding result in experiment [1], in experiment [2], in experiment [4] and in experiment [5] was “no binding” throughout. For the same molecule, the EC50 in experiment [3] came to 0.9 nM.

B2: h2A2 (humanized 2A2 anti-integrin beta-6 antibody) (antibody, V domains shown)
VH: QFQLVQSGAEVKKPGASVKVSCKASGYSFTDYNVNWVRQAPGQGLEWIGVINPKYGTTRYNQKFKGRATLTVDKSTSTAYMELSSLRSEDTAVYYCTRGLNAWDYWGQGTLVTVSS
VL: DIQMTQSPSSLSASVGDRVTITCGASENIYGALNWYQQKPGKAPKLLIYGATNLEDGVPSRFSGSGSGRDYTFTISSLQPEDIATYYCQNVLTTPYTFGQGTKLEIK
Take B2: the binding result in experiment [1], in experiment [2], in experiment [4] and in experiment [5] was “no binding” throughout. The EC50 in experiment [3] came out at 0.7 nM; in experiment [6], 0.3 nM.
